Assay [1] deals with T1, MUC1 (Mucin-1) as expressed by human cancer cell lines (human, UniProt P15941 24-1255).
T1 construct: whole, on cells; Endogenous antigen on the cell surface (flow cytometry) or in cell lysates (immunoprecipitation, western blot); also called MUC1 antigen; antigen recognized by the MP1 monoclonal antibody
Description: flow cytometry, SiHa cells; grade = percent MP1 positive cells (+: 20-30%). The procedure:
The MP1 monoclonal antibody of the present invention was added to the cultured various cancer cells, respectively, and they were reacted at 4° C. for 30 minutes and then washed with PBS, and FITC-conjugated goat anti mouse IgG (Jackson ImmunoResearch, USA) was added and they were cultured at 4° C. for 15 minutes. They were washed with PBS again, and then were analyzed with FACS caliber (Becton Dickinson, USA) to confirm the reactivity of the MP1 antibody in various solid cancer cell lines (Table 9).

For assay [2], the target named is T1, MUC1 (Mucin-1) as expressed by human …. Kind of assay: flow cytometry, Capan-2 cells stained with transient-expression culture solution; positive rate against the negative control.

Where a chain is given by its changes, count along the chain named.

T1 sequence (P15941 24-1255): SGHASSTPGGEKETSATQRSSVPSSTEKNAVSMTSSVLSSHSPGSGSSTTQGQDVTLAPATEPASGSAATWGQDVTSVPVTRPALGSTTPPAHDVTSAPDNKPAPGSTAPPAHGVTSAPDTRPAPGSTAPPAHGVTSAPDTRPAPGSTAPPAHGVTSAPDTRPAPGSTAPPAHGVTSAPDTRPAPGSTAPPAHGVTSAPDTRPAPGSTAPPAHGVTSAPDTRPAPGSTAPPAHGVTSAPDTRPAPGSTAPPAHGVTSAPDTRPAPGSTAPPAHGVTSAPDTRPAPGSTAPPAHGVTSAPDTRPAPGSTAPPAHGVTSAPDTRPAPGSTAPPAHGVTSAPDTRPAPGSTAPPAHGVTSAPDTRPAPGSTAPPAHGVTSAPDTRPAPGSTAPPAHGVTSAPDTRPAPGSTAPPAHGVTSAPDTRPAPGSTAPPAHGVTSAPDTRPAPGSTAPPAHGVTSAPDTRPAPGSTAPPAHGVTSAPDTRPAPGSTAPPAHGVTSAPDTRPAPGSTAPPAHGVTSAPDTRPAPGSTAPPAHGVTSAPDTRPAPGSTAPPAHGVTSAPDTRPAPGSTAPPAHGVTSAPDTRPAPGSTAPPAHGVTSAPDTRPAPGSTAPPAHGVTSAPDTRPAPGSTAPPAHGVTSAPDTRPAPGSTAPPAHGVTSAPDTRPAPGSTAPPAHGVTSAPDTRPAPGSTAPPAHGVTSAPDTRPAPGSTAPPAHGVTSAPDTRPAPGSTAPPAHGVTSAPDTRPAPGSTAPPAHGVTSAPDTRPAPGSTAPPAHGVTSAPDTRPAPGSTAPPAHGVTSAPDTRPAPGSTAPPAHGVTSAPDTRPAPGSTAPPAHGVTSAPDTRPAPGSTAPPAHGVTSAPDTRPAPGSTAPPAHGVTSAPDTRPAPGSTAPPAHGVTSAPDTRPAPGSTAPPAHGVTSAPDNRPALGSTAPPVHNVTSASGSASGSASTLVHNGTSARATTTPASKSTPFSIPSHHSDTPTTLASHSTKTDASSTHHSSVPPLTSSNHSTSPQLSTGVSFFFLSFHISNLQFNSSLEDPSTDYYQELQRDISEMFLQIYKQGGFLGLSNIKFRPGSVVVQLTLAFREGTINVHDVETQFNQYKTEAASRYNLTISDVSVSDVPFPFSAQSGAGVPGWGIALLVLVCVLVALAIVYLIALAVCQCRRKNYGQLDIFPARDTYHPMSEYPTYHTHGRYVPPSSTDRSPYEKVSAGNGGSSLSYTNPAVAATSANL

B1: MP1 monoclonal antibody (antibody, V domains shown)
VH: EVKVDETGGGLVQPGRPMKLSCVVSGITFSDYWMNWVRQSPEKGLEWVAQIRNKPYNYETYYSNSVKGRFTISRDDSKSSVYLQMNNLRAEDMGIYYCTWAMITSDGYAMDYWGQGTSVTVSS
VL: DIVMSQSPSSLAVSVGEKVTLICKSSQSLLLSSNQKNYLAWYQQKPGQSPKLLIYWASTRESGVPDRFTGSGSGTDFTLTINSVKAEDLAVYYCQQCFSYPLTFGAGTKLELK
notes: also called mouse antibody MP1; MP1 Ab
Consider B1, for which the binding result in assay [1] was “binds”.

B2: humanized MP1 antibody VH1/VL4 (antibody, V domains shown)
VH: EVKVVESGGGLVQPGRSLRLSCTASGITFSDYWMNWVRQAPGKGLEWVGQIRNKPYNYETYYSQSVKGRFTISRDDSKSIAYLQMSSLKTEDTAVYYCTWAMITSDGYAMDYWGQGTLVTVSS
VL: EIVMTQSPGTLSLSPGERATLSCRSSQSLLLSSNQKNYLAWYQQKPGQAPRLLIYWASTRESGIPDRFSGSGSGTDFTLTISRVEPEDFAVYYCQQCFSYPLTFGQGTKLEIK
notes: tested as ExpiCHO-S culture solution
Regarding B2, in assay [2], the “Capan-2 cell surface binding (%)” value was determined as 15.8%.

B3: humanized MP1 antibody VH4/VL8 (antibody, V domains shown)
VH: B2 VH with R16G, T23A, G49A, Q64N, S77A, I80S, A81V, K89R, T90A
VL: DIVMTQSPLSLPVTPGEPASISCRSSQSLLLSSNQKNYLAWYLQKPGQSPQLLIYWGSTRESGVPDRFSGSGSGTDFTLKISRVEAEDVGVYYCQQSFSYPLTFGQGTKLEIK
notes: as for B2
On to B3, for which the “Capan-2 cell surface binding (%)” value in assay [2] was determined as 11.4%.

B4: humanized MP1 antibody VH4/VL7 (antibody, V domains shown)
VH: B2 VH with R16G, T23A, G49A, Q64N, S77A, I80S, A81V, K89R, T90A
VL: B3 VL with G57A, S97C
notes: as for B2
Take B4: the “Capan-2 cell surface binding (%)” value in assay [2] is 11%.

B5: humanized MP1 antibody VH8/VL2 (antibody, V domains shown)
VH: QVQLVESGGGVVQPGRSLRLSCAASGITFSSYWMNWVRQAPGKGLEWVAQIRNKPYNYEKYYAQSVKGRFTISRDDSKSTLYLQMSSLRAEDTAVYYCAWAMITSDGYAMDYWGQGTLVTVSS
VL: DIVMTQSPDSLAVSLGERATISCKSSQSVLLSSNQKNYLAWYQQKPGQPPKLLIYWASTRESGVPDRFSGSGSGTEFTLTISSLQAEDVAVYYCQQSFSYPLTFGQGTKLEIK
notes: as for B2
Turning to B5, the “Capan-2 cell surface binding (%)” value in assay [2] was found to be 11.4%.

B6: humanized MP1 antibody VH8/VL8 (antibody, V domains shown)
VH: B5 VH
VL: B3 VL
notes: as for B2
For the molecule B6, the “Capan-2 cell surface binding (%)” value in assay [2] amounted to 7.16%.

B7: humanized MP1 antibody VH1/VL1 (antibody, V domains shown)
VH: B2 VH
VL: B5 VL with V29L, L84V, S97C
notes: as for B2
As for B7, the “Capan-2 cell surface binding (%)” value in assay [2] came out at 7.95%.

B8: humanized MP1 antibody VH7/VL5 (antibody, V domains shown)
VH: B5 VH with Q3K, L4V, S31D, K60T, A63S, Q64N, L81V, A99T
VL: B2 VL with M4L, S25A, L29V, T59S, S62T, V84L, C97S
notes: as for B2
Regarding B8, the “Capan-2 cell surface binding (%)” value in assay [2] was 10.2%.

B9: humanized MP1 antibody VH4/VL2 (antibody, V domains shown)
VH: B2 VH with R16G, T23A, G49A, Q64N, S77A, I80S, A81V, K89R, T90A
VL: B5 VL
notes: as for B2
As for B9, the “Capan-2 cell surface binding (%)” value in assay [2] amounted to 7.2%.

B10: humanized MP1 antibody VH1/VL2 (antibody, V domains shown)
VH: B2 VH
VL: B5 VL
notes: as for B2
B10: in assay [2], the “Capan-2 cell surface binding (%)” value worked out at 13.5%.

B11: humanized MP1 antibody VH8/VL4 (antibody, V domains shown)
VH: B5 VH
VL: B2 VL
notes: as for B2
B11: the “Capan-2 cell surface binding (%)” value in assay [2] stood at 15.6%.

B12: humanized MP1 antibody VH7/VL3 (antibody, V domains shown)
VH: B5 VH with Q3K, L4V, S31D, K60T, A63S, Q64N, L81V, A99T
VL: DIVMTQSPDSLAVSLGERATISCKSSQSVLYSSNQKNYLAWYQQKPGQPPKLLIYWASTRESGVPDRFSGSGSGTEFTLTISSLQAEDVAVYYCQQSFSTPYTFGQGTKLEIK
notes: as for B2
As for B12, the “Capan-2 cell surface binding (%)” value in assay [2] was 11.5%.

B13: humanized MP1 antibody VH1/VL5 (antibody, V domains shown)
VH: B2 VH
VL: B2 VL with M4L, S25A, L29V, T59S, S62T, V84L, C97S
notes: as for B2
B13: the “Capan-2 cell surface binding (%)” value in assay [2] came out at 27.2%.

B14: humanized MP1 antibody VH8/VL6 (antibody, V domains shown)
VH: B5 VH
VL: EIVLTQSPGTLSLSPGERATLSCRASQSVLLSSSQKNYLAWYQQKPGQAPRLLIYWASSRATGIPDRFSGSGSGTDFTLTISRLEPEDFAVYYCQQSFSSPYTFGQGTKLEIK
notes: as for B2
As for B14, the “Capan-2 cell surface binding (%)” value in assay [2] was 9.97%.

B15: humanized MP1 antibody VH8/VL5 (antibody, V domains shown)
VH: B5 VH
VL: B14 VL with S34N, A61E, S100Y, Y102L
notes: as for B2
B15: the “Capan-2 cell surface binding (%)” value in assay [2] came out at 6.61%.

B16: humanized MP1 antibody VH4/VL5 (antibody, V domains shown)
VH: B2 VH with R16G, T23A, G49A, Q64N, S77A, I80S, A81V, K89R, T90A
VL: B14 VL with S34N, A61E, S100Y, Y102L
notes: as for B2
Turning to B16, in assay [2], the “Capan-2 cell surface binding (%)” value was found to be 16.9%.

B17: humanized MP1 antibody VH9/VL2 (antibody, V domains shown)
VH: B5 VH with I27F, N35H, Q50V, N53Y, N57G, Y58S, M110F
VL: B5 VL
notes: as for B2
On to B17, for which the “Capan-2 cell surface binding (%)” value in assay [2] is 7.04%.

B18: humanized MP1 antibody VH4/VL4 (antibody, V domains shown)
VH: B2 VH with R16G, T23A, G49A, Q64N, S77A, I80S, A81V, K89R, T90A
VL: B2 VL
notes: as for B2
With B18, the “Capan-2 cell surface binding (%)” value in assay [2] turned out to be 18.1%.

B19: humanized MP1 antibody VH8/VL3 (antibody, V domains shown)
VH: B5 VH
VL: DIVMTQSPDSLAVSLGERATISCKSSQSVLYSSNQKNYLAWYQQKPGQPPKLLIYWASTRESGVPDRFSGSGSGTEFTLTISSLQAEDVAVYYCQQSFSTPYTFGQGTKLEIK
notes: as for B2
As to B19, the “Capan-2 cell surface binding (%)” value in assay [2] came out at 28.5%.

B20: humanized MP1 antibody VH7/VL4 (antibody, V domains shown)
VH: B5 VH with Q3K, L4V, S31D, K60T, A63S, Q64N, L81V, A99T
VL: B2 VL
notes: as for B2
B20: the “Capan-2 cell surface binding (%)” value in assay [2] amounted to 12.7%.

B21: humanized MP1 antibody VH8/VL1 (antibody, V domains shown)
VH: B5 VH
VL: B5 VL with V29L, L84V, S97C
notes: as for B2
As to B21, the “Capan-2 cell surface binding (%)” value in assay [2] amounted to 6.65%.
